# According to US20130078263A1:
# B1: IMMU-114 (antibody, from a related filing, IgG4, V domains shown)
# VH: QVQLQQSGSELKKPGASVKVSCKASGFTFTNYGMNWVKQAPGQGLKWMGWINTYTREPTYADDFKGRFAFSLDTSVSTAYLQISSLKADDTAVYFCARDITAVVPTGFDYWGQGSLVTVSS
# VL: DIQLTQSPSSLSASVGDRVTITCRASENIYSNLAWYRQKPGKAPKLLVFAASNLADGVPSRFSGSGSGTDYTFTISSLQPEDIATYYCQHFWTTPWAFGGGTKLQIKR
# Target: HLA-DR on human peripheral blood mononuclear cells (human)
# Assay: cell-based or functional assay
binder,measurement,value
B1,"frequency of CD3+ class II-DR+ cells, IMMU-114-treated MLR, representative result",4%
same,"frequency of CD3+ class II-DR+ cells, IMMU-114-treated resting PBMCs, representative result",0.5%
same,"frequency of CD11c+ class II-DR+ cells, IMMU-114-treated MLR, representative result",2.3%
same,"frequency of CD11c+ class II-DR+ cells, IMMU-114-treated resting PBMCs, representative result",0.4%
same,"frequency of CD14+ class II-DR+ cells, IMMU-114-treated MLR, representative result",2.2%
same,"frequency of CD14+ class II-DR+ cells, IMMU-114-treated resting PBMCs, representative result",0.5%
same,reduction of live mDC1 in human PBMCs after 3 days with 5 µg/ml antibody (flow cytometry),59.2%
same,reduction of live mDC2 in human PBMCs after 3 days with 5 µg/ml antibody (flow cytometry),85%
same,reduction of pDCs in human PBMCs (flow cytometry),50%
